Laboratory results: PMC7137648
pKd: −log10 of the molar value. Read-outs that look alike come from different tables or passages of the source. Values belong to the substance of their own block, whether it stands above or below them.

Assays:
C1q (Homo sapiens) [1] = molecular target: C1q (Homo sapiens) (UniProt P02745); conditions: cited from earlier work
[2] = molecular target: complement protein C1q (human) (UniProt P02745); assay: SPR; N-glycosylation site mutants of SR-F1(20-421) with C1q (Figures S5A-C), n = 2; which partner was immobilised is not told in the text shown; apparent affinity
C1q (Homo sapiens) [3] = molecular target: C1q (Homo sapiens) (UniProt P02745); conditions: cited from earlier work; remark: listed apart in the source

Sequence of C1q (Homo sapiens) (P02745 23-245, chain 1 of 3): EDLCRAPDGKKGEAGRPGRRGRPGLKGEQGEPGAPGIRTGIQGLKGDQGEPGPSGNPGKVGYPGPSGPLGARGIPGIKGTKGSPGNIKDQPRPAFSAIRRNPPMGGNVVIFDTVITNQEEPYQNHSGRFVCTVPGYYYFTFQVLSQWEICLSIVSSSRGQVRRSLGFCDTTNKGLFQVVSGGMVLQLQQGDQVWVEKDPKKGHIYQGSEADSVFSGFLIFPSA
Sequence of C1q (Homo sapiens) (P02746 28-253, chain 2 of 3, further chain): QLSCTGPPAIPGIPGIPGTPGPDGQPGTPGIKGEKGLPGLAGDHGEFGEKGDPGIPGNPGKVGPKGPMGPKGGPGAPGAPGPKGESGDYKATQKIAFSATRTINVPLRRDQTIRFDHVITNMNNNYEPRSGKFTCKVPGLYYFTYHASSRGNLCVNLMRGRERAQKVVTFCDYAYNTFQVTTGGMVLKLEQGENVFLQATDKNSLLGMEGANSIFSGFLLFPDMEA
Sequence of C1q (Homo sapiens) (P02747 29-245, chain 3 of 3, further chain): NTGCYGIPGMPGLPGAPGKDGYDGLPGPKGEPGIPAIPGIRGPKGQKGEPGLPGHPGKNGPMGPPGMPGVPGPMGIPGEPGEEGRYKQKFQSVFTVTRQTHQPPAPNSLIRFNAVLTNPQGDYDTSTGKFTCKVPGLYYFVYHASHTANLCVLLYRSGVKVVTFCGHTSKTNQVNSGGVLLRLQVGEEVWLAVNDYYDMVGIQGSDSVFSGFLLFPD
Sequence of complement protein C1q (human) (P02745 23-245, chain 1 of 3): as the sequence (P02745 23-245, chain 1 of 3) above
Sequence of complement protein C1q (human) (P02746 28-253, chain 2 of 3, further chain): as the sequence (P02746 28-253, chain 2 of 3, further chain) above
Sequence of complement protein C1q (human) (P02747 29-245, chain 3 of 3, further chain): as the sequence (P02747 29-245, chain 3 of 3, further chain) above
Sequence of SR-F1 ECD (Q14162 20-421): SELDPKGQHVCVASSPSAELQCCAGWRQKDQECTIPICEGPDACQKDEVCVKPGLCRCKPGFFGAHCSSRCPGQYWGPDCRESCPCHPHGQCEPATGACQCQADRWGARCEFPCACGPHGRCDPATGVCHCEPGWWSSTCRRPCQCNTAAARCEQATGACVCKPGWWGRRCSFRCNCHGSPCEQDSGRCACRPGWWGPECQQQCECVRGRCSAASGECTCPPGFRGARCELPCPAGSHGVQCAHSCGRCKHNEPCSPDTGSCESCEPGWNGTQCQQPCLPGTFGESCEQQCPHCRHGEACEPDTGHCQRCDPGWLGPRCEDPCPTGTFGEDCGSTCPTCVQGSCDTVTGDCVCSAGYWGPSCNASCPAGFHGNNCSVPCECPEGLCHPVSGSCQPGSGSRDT
Sequence of calreticulin (P27797 18-417): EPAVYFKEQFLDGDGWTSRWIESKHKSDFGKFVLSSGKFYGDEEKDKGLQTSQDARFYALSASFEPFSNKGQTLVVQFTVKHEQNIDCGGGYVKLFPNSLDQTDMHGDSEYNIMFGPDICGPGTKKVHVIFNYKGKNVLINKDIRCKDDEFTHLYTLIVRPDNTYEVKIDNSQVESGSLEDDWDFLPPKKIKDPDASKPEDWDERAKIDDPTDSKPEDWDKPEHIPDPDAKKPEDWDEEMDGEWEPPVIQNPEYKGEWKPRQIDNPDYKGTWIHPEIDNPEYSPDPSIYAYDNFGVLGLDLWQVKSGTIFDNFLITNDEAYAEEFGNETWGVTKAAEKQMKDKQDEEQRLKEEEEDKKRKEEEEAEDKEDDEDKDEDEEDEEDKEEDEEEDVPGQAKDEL

Substance: SR-F1 ECD (from UniProt Q14162)
pKd (C1q (Homo sapiens) [1]): 6.91

pKd [2]: 6.24
Substance: SR-F1(20-421) N289Q (from UniProt Q14162 20-421) (domain or fragment)

Substance: calreticulin (from UniProt P27797)
pKd (C1q (Homo sapiens) [3]): 6.92
